Experimental data reported in publication PMC11875312, “Hidden Structural States of Proteins Revealed by Conformer Selection with AlphaFold-NMR” (Research Square, 2025).

Target: the molecule itself
Assay: solution NMR structure (AlphaFold-NMR: AFsample models selected against NOESY and chemical shift data); homodimer models of CDK2AP1(61-115) scored against NOESY peak lists (including 3D X-filtered NOESY on a mixed sample of 50% [15N,13C]-labeled and 50% unlabeled CDK2AP1, recorded earlier, ref. 47; 124 further peaks picked here) and chemical shifts (BMRB 16808); validated by NOESY Double Recall

B1: Cyclin-Dependent Kinase 2-Associated Protein 1 (residues 61-115) (domain or fragment, human, UniProt O14519 61-115, looked up)
chain: SKYAELLAIIEELGKEIRPTYAGSKSAMERLKRGIIHARGLVRECLAETERNARS
notes: Cyclin-Dependent Kinase 2-Associated Protein 1 (CDK2AP1), human, residues 61-115, the homodimeric four-helix bundle; The methods mention newly assigned H58 - K62 resonances, so the sample may carry residues (perhaps of a tag) before residue 61; also called CDK2AP1; CDK2AP1_(61–115)
  binding result: binds
